Measured values as given in patent US8889827B2, “Opiorphin peptide derivatives as potent inhibitors of enkephalin-degrading ectopeptidases” (Institut Pasteur, priority 2008, dated 2014).
Non-standard residues stand in square brackets, D forms with d. No end group written: not given here.

How the values were obtained:
Format in all cases: biochemical
recombinant human AP-N = target: T1, recombinant human AP-N (Homo sapiens, UniProt P15144); test: AP-N-ectopeptidase activity, Ala-Mca substrate; conditions: for inhibitory preference for human AP-N (in words): screening at 50 μM, AP-N versus NEP; for inhibitory potency towards human AP-N (in words): screening, 50 μM final concentration, triplicate
T1 construct: devoid of their respective N-terminal cytosol and transmembrane segment; purchased R&D Systems
T1 sequence (P15144 33-967 limits assumed): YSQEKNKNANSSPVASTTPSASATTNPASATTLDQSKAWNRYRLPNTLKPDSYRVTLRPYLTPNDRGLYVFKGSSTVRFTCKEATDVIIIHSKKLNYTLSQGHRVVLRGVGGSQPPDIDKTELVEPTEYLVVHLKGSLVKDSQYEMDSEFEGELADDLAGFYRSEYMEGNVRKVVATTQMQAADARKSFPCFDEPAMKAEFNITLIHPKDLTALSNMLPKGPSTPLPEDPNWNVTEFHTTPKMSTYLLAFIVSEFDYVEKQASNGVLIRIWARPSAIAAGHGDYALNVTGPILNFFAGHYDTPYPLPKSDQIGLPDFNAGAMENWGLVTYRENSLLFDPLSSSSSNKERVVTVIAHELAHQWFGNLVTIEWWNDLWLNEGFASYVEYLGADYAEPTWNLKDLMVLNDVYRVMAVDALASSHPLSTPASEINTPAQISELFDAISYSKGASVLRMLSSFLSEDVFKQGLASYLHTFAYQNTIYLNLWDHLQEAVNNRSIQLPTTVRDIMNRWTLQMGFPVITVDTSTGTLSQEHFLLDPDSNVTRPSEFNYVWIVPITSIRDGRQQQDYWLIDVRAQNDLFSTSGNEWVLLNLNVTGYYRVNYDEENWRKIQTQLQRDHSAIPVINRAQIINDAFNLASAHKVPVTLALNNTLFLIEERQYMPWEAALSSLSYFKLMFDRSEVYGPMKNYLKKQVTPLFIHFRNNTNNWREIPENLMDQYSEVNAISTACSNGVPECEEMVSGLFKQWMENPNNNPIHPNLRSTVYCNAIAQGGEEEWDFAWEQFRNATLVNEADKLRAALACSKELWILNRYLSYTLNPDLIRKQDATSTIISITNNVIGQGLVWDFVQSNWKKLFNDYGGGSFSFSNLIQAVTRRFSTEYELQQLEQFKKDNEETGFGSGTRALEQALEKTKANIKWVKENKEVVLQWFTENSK
Method: (§1) Formal kinetic analysis was performed for each assay using real-time fluorescence monitoring of specific substrate hydrolysis.
(§2) Recombinant human NEP and recombinant human AP-N (devoid of their respective N-terminal cytosol and transmembrane segment) that were purchased from R&D Systems, were used as pure source of peptidase.
FRET is the distance-dependant transfer of energy from a donor fluorophore (Abz=ortho-aminobenzoyl or Mca=7-methoxycoumarin-4-yl-acetyl) to an acceptor fluorophore (DnpOH=2,4-dinitrophenyl or EDDnp=2,4-dinitrophenyl ethylenediamine). • L-alanine-Mca, Ala-Mca, a fluorogenic substrate for measuring aminopeptidase activity was purchased from Sigma.
(§3) According to conditions of initial velocity measurement: the time, pH and temperature of incubation as well as enzyme and substrate concentrations were defined for each assay. Hydrolysis of substrates was measured by real-time monitoring their metabolism rate by the two peptidases in the presence and absence of tested inhibitory compound (concentrations ranging from 1 to 50 μM). These were added to the preincubation medium. The background rate of substrate autolysis representing the fluorescent signal obtained in the absence of enzyme was subtracted to calculate the initial velocities in RFU (Relative Fluorescent Unit)/min.
Measurement of AP-N-ectopeptidase activity using Ala-Mca substrate. Using black half-area 96 well microplate the standard reaction consisted of enzyme (4 ng) in 100 mM Tris-HCl pH 7.0 (100 μl final volume).
(§4) Compounds were tested in triplicate at 50 μM final concentration.

human NEP = target: T2, human NEP (Homo sapiens, UniProt P08473); test: Screening of opiorphin peptide-derivatives on hNEP (endopeptidase and carboxydipeptidase activities); conditions: for inhibitory potency towards human NEP (in words): screening, 50 μM final concentration, triplicate
T2 construct: devoid of their respective N-terminal cytosol and transmembrane segment; purchased R&D Systems
T2 sequence (P08473 52-750 limits assumed): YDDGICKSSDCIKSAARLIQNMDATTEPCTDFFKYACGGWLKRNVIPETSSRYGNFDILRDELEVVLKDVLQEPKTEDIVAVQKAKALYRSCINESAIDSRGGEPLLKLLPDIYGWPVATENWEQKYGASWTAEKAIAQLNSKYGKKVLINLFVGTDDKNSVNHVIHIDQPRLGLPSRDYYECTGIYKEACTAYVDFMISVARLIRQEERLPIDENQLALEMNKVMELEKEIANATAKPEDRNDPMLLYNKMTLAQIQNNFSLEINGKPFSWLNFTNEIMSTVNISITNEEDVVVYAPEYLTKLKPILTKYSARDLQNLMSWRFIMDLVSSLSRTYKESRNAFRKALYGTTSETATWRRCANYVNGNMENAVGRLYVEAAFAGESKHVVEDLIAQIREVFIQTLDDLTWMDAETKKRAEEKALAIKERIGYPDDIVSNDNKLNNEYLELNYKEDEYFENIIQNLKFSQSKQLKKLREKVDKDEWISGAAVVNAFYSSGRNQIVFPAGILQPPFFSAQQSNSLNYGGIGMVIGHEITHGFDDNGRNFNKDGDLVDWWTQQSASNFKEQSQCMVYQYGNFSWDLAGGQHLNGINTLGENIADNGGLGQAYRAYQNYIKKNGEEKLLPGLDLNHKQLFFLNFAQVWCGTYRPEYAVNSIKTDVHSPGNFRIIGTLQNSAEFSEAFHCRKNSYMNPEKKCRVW
Method: as §3
(§5) (2.3 min-interval successive measures) by using a fluorimeter microplate reader (monochromator Infinite 200-Tecan) at 320 nm and 420 nm excitation and emission wavelengths, respectively.
Using black half-area 96 well microplate, the standard reaction consisted of enzyme (2.5 ng) in 100 mM Tris-HCl pH 6.5 containing 50 mM NaCl (100 μl final volume). The substrate (4 μM final concentration) was added after preincubation for 10 min and the kinetics of appearance of the fluorescent signal (RFU) was directly analyzed for 40 min at 28° C. (2.3 min-interval successive measures) by using the fluorimeter reader at 320 nm excitation and 420 nm emission wavelengths.
In addition, the intramolecularly quenched fluorogenic peptide, Mca-BK2 (10 μM), was submitted to hydrolysis by 5 ng rhNEP under the same experimental conditions as those described behind.
as §4

[1] = target: T3, recombinant human NEP (rhNEP-Endopeptidase activity) (Homo sapiens, UniProt P08473); test: NEP-endopeptidase activity, FRET substrate Abz-dR-G-L-EDDnp; conditions: screening at 50 μM and IC50 comparison, NEP endopeptidase versus AP-N
T3 construct: devoid of their respective N-terminal cytosol and transmembrane segment; purchased R&D Systems
T3 sequence (P08473 52-750 limits assumed): as above
Method: as §1, §2, §3, §5

[2] = target: T4, membrane-bound human NEP expressed by LNCaP epithelial cells (Homo sapiens, UniProt P08473); test: Substance P cleavage by membrane-bound hNEP of human cell membranes; conditions: increase vs Opiorphin native peptide in the same test
T4 construct: human cell membranes as source of hNEP; endogenous in cells; host or cells: LNCaP epithelial cells (membranes)
T4 sequence (P08473 whole entry): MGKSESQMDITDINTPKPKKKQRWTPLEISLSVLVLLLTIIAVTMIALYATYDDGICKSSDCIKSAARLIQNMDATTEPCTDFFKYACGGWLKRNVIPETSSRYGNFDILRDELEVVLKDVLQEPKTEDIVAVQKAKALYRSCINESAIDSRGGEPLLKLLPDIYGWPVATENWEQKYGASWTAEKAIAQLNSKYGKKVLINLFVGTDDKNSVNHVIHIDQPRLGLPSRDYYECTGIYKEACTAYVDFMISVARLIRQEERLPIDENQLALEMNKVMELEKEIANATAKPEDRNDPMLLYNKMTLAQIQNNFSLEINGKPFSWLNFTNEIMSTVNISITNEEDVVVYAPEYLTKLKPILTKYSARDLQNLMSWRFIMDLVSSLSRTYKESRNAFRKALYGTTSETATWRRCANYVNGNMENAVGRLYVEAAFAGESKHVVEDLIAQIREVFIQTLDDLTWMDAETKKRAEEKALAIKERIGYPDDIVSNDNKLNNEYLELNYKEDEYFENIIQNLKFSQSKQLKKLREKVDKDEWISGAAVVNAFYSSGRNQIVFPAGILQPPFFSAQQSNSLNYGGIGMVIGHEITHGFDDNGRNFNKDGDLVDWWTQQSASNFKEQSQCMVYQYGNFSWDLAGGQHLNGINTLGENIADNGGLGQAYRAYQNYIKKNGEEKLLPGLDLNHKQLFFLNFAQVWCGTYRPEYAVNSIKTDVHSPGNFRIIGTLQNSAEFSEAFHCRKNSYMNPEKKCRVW

| Compound | inhibitory potency towards hAP-N compared to Opiorphin-QRFSR native peptide (in words) (recombinant human AP-N) | inhibitory preference for human AP-N (in words) (recombinant human AP-N) | inhibitory potency towards hNEP compared to Opiorphin-QRFSR native peptide (in words) (human NEP) | inhibitory potency towards human NEP (in words) (human NEP) | other results |
| --- | --- | --- | --- | --- | --- |
| QRGPR [NH2-QRGPR-COOH] | equivalent inhibitory potency | inhibitory preference for human AP-N | weak inhibitory potency | weak inhibitory potency | – |
| dR-dS-dF-dR-dQ ([dR][dS][dF][dR][dQ]) [NH2-dRdSdFdRdQ-COOH] | – | preference for AP-N activity | – | did not display significant inhibitory activity | inhibitory potency towards human AP-N (in words) (recombinant human AP-N): did not display significant inhibitory activity |
| N=C(N)NCCC[C@H](NC(=O)[C@H](CO)NC(=O)[C@H](Cc1ccccc1)NC(=O)[C@H](CCCNC(=N)N)NC(=O)[C@H](CCC(N)=O)NC(=O)CCCCCCCCCCCCNC(=O)[C@@H](N)Cc1ccc(O)cc1)C(=O)O [Y(PE12)QRFSR-COOH, Y—(—HN—(CH2)12—CO-)-QRFSR] | – | – | – | potent dual inhibitors | inhibitory potency towards human AP-N (in words) (recombinant human AP-N): potent dual inhibitors; inhibitory preference for human NEP endopeptidase activity (in words) [1]: inhibitory preference for human NEP endopeptidase activity |
| QRFSK | – | – | equivalent inhibitory potency | – | – |
| QHNPR [NH2-QHNPR-COOH] | equivalent inhibitory potency | inhibitory preference for human AP-N | weak inhibitory potency | weak inhibitory potency | – |
| N=C(N)NCCC[C@H](NC(=O)[C@H](CO)NC(=O)[C@H](Cc1ccccc1)NC(=O)[C@H](CCCNC(=N)N)NC(=O)[C@H](CCC(N)=O)NC(=O)[C@@H](N)CS)C(=O)O [CQRFSR-COOH, CQRFSR] | – | – | – | potent dual inhibitors | reinforced inhibitory potency towards hNEP compared to QRFSR native peptide (human NEP; increase vs QRFSR native peptide): 5 fold |
| QRFPR | equivalent inhibitory potency | inhibitory preference for human AP-N | weak inhibitory potency | weak inhibitory potency | – |
| QKFSR | – | – | light reduction in inhibitory potency | – | – |
| N=C(N)NCCC[C@H](NC(=O)[C@H](CO)NC(=O)[C@H](Cc1ccccc1)NC(=O)[C@H](CCCNC(=N)N)NC(=O)[C@H](CCC(N)=O)NC(=O)[C@@H](N)CSSC[C@H](N)C(=O)N[C@@H](CCC(N)=O)C(=O)N[C@@H](CCCNC(=N)N)C(=O)N[C@@H](Cc1ccccc1)C(=O)N[C@@H](CO)C(=O)N[C@@H](CCCNC(=N)N)C(=O)O)C(=O)O [[CQRFSR]2] | – | – | – | – | increase inhibitory potency towards hNEP-Endo and CarboxyDi-peptidase activities compared to CQRFSR monomer peptide (human NEP; increase vs CQRFSR monomer): at least 2 fold |
| CCCCCCCC(=O)OC[C@H](NC(=O)[C@H](Cc1ccccc1)NC(=O)[C@H](CCCNC(=N)N)NC(=O)[C@H](CCC(N)=O)NC(=O)CCCCCCNC(=O)[C@@H](N)CS)C(=O)N[C@@H](CCCNC(=N)N)C(=O)O [C[PE6]QRF[S—O-Octanoyl]R, C—(—HN—(CH2)6—CO-)-QRF—S(O-octanoyl)-R] | – | – | – | – | increase inhibitory potency compared to Opiorphin native peptide, Substance P test [2]: at least 5 fold |
